Experiment [1] has as its target Cynomolgus IFN-α protein SEQ ID 58, expressed in Vero tissue culture supernatant (Cynomolgus (Macaca fascicularis)). As to the kind of experiment: ELISA kit PBL #41100 (head prints 41110) on Vero supernatant; read against human IFN-α2a standard curve; unit not given. (An ELISA detects its analyte on a solid surface through an enzyme-linked reagent.)
The target of experiment [2] is Cynomolgus IFN-α protein SEQ ID 50, expressed in Vero tissue culture supernatant (Cynomolgus (Macaca fascicularis)). Described as above.
Experiment [3] addresses Cynomolgus IFN-α protein SEQ ID 62, expressed in Vero tissue culture supernatant (Cynomolgus (Macaca fascicularis)). The experiment is described as above.
Experiment [4] has as its target Cynomolgus IFN-α protein SEQ ID 46, expressed in Vero tissue culture supernatant (Cynomolgus (Macaca fascicularis)). The experiment is described as above.
For experiment [5], the target named is Cynomolgus IFN-α protein SEQ ID 66, expressed in Vero tissue culture supernatant (Cynomolgus (Macaca fascicularis)). The description is as above.
Experiment [6] addresses Cynomolgus IFN-α protein SEQ ID 54, expressed in Vero tissue culture supernatant (Cynomolgus (Macaca fascicularis)). Described as above.
In experiment [7] the target is Cynomolgus IFN-α protein SEQ ID 42, expressed in Vero tissue culture supernatant (Cynomolgus (Macaca fascicularis)). The experiment is described as above.
The target in experiment [8] is Cynomolgus IFN-α protein SEQ ID 60, expressed in Vero tissue culture supernatant (Cynomolgus (Macaca fascicularis)). The experiment is described as above.
For experiment [9], the target named is Cynomolgus IFN-α protein SEQ ID 56, expressed in Vero tissue culture supernatant (Cynomolgus (Macaca fascicularis)). Described as above.
In experiment [10] the target is Cynomolgus interferon alpha 2 (SEQ ID NO: 66), purified from inclusion bodies after expression in E. coli (Cynomolgus (Macaca fascicularis)). The experiment in a line: sandwich ELISA kit PBL #41100-1; signal relative to human IFN-α2 (FIG. 3).
In experiment [11] the target is Rhesus interferon alpha 2 (Rhesus) (UniProt B6CK11). The experiment is described as above.
Sequence of UniProt B6CK11 (B6CK11 entry or part of it): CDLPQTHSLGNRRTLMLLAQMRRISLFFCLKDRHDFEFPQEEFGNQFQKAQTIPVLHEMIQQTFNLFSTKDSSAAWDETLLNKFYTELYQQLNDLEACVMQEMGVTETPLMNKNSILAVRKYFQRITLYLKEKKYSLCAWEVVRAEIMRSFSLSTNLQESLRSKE

As to “Human IFN-α ELISA kit, PBL Biomedical Laboratories Product #41100-1 (kit antibodies) (antibody)”, the ELISA estimate of IFN-α protein level in tissue culture supernatant was 66 in [1]; 296 in [2]; 0 in [3]; 0 in [4]; 184 in experiment [5]; 11 in experiment [6]. Moreover, the ELISA estimate of IFN-α protein level in tissue culture supernatant in experiment [7], in experiment [8] and in experiment [9] was 0 in each case. The specific ELISA signal compared to human IFN-α2 in [10] and in experiment [11] was 10% in each case.

Values taken from patent US20090092581A1.
